From the supplement of paper PMC9170038 come the findings set out here.

This series has as its system MS2 coat protein. Briefly: apparent KD of MS2 coat protein; higher = weaker reporter binding. Particulars: Eterna round: R107. As for the experimental part: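 RNA-MaP round R107: designed RNA switches with theophylline, tryptophan, arginine or FMN aptamers are transcribed on-chip within common flanks. They are titrated with SNAP-549-labelled MS2 coat protein in RNA-MaP buffer (100 mM Tris pH 7.5, 80 mM KCl, 4 mM MgCl2), without ligand or with the indicated ligand. Median apparent KD per design.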

The mark [1] stands for this setting: input ligand: theophylline 20 uM.
Setting [2] is: input ligand: theophylline 2 mM.
[3] abbreviates: input ligand: tryptophan 2.4 mM.

In the case of “UAACAUGAGGAUCACCCAUGUAUACUAAGUCGAGGACCGGUACGGCCGCCACUCGAACUUCAAGAAUAGGCGGUAAAUGUAAGUA [JR_ExcTryptoA_Sub020]”, the “apparent KD of MS2 coat protein” value came to 11.8 nM (input ligand: arginine 13.2 mM), 16.5 nM under setting [1] and 14 nM under setting [2].
For the sequence “AAGCUGCCAAGAAGGUGAUCCAAAUGUGAUACCAGCUAGGAAACUAGCCCUUGGCAGCACAUGAGGAUCACCCAUGUAAUAAUAA [(T)'-(M)'-(T1)-(T2)-(M1)-(M2)_Design1_2/19/17]”, the “apparent KD of MS2 coat protein” value was determined as 37.7 nM (input ligand: arginine 13.2 mM), 191 nM under setting [1] and 48.3 nM under setting [3].
The corresponding values for “AGACAUGAGGAUCACCCAUGUAGUAUGGAUACCAGAUGUAGAUUAGUCCCUUGGCAGCUGUGGUGAAGUGAUGCAUUGCUCCUAG [Exclusion - Theophylline A (Freestyle 1)]” are 19.5 nM, 36.4 nM and 23.2 nM.
In the case of “GGACUAACCAGAAGGAGCGGCACGCAGAAACUGCAAAUUCCUCCGCACGAGGAUCACCCGUGUCAGGUAGGUCGCUGGUUAGUCG [ArgBX 28]”, the “apparent KD of MS2 coat protein” value runs as follows: (input ligand: arginine 13.2 mM) 20.8 nM; (input ligand: none) 19.7 nM; under setting [1], 25.9 nM; under setting [2], 24 nM; under setting [3], 22.6 nM.
Take “AAACGUUGCUGCGAUACCAGACAUGAGGAUCACCCAUGUACCAAGGUAAGAAAAUAACAUGUCCCUUGGCAGCGCAGCAACGAAA [MAT - Exclusion Theophlline B - Mod of Eli - D3]”: the “apparent KD of MS2 coat protein” value by setting is: (input ligand: arginine 13.2 mM) 17.5 nM; under setting [1], 43.6 nM; under setting [3], 15.6 nM.
For the sequence “GCUACAUGAGGAUCACCCAUGUGUACUGAAGGAGCGGCGAAAACGCCAGGUAGGUCGCAGUAUGUGGCUCUGGGCACGAGAUGGC [#02 Same State - Arginine A]”, the “apparent KD of MS2 coat protein” value (input ligand: arginine 13.2 mM) came to 27 nM; the “apparent KD of MS2 coat protein” value (input ligand: none) is 37.3 nM; the “apparent KD of MS2 coat protein” value under setting [1] stood at 40 nM; the “apparent KD of MS2 coat protein” value under setting [2] was determined as 41.3 nM; the “apparent KD of MS2 coat protein” value under setting [3] worked out at 30.5 nM.
“AGAUGAGUCACGGCCGCCACUCUUAUCAGGAUCACCCAUGGUUGACAUGAGGAUCACCCAUGUAUGAGGACCGGGUGAUGAGCAU [XTryp B #1]”: the “apparent KD of MS2 coat protein” value is 13.7 nM (input ligand: arginine 13.2 mM), 15.9 nM under setting [1] and 15 nM under setting [2].
For “GACGCAUGAGUUGUAACAGCUCAUGGGUCGCGAGGACCGGUACGGCCGCCACUCGGCUGUACAUGAGGAUCACCCAUGUCAGGGU [#1 Same State - Tryptophan A Attempt #29 (HarryS)]”, the “apparent KD of MS2 coat protein” value (input ligand: arginine 13.2 mM) is 24.7 nM; the “apparent KD of MS2 coat protein” value (input ligand: none) was 346 nM; the “apparent KD of MS2 coat protein” value under setting [1] stood at 1320 nM; the “apparent KD of MS2 coat protein” value under setting [2] came to 1310 nM; the “apparent KD of MS2 coat protein” value under setting [3] stood at 451 nM.
“UCGUGUAUUUCGGAUACCAGUGAAAUCGAUACAUGAGGAUCACCCAUGUGAGAGGAUGUACACCCUUGGCAGCUGUAUAUAUCUG [fgfmullin]”: the “apparent KD of MS2 coat protein” value is 18.7 nM (input ligand: arginine 13.2 mM); 29.1 nM (input ligand: none); 38.7 nM under setting [1]; 24.8 nM under setting [2]; 21.9 nM under setting [3].
Take “GUCCUCAGCCGAAGGAGCGCUAGAAGGUGACAUGAGGAUCACCCAUGUGUGUGAUGUGGCUAGCAGGUAGGUCGCGGAGAGGAUU [Exclusion - Arginine B (Freestyle 17)]”: the “apparent KD of MS2 coat protein” value by setting is: (input ligand: arginine 13.2 mM) 107 nM; (input ligand: none) 98.6 nM; under setting [1], 157 nM; under setting [2], 127 nM; under setting [3], 78.8 nM.
Take “GGAUAGAUAGGAGAUACCAGAUACAUAAACAUGAGGAUCACCCAUGUGUCUGCACUAAGUAUCCCUUGGCAGCUCGGAGAUCUGA [#17 Same State - Theophylline B]”: the “apparent KD of MS2 coat protein” value worked out at 17.4 nM (input ligand: arginine 13.2 mM), 21.7 nM under setting [1] and 18.5 nM under setting [3].
Regarding “AGAAUGUAAUAUGGCAAAGUUAUAACCGAAGGAGCGCCGAAUAAGGCAGGUAGGUCGCGGAAACAUGAGGAUCACCCAUGUCCAU [Arginine A Same State; Euphoria Solution 3]”, the “apparent KD of MS2 coat protein” value runs as follows: (input ligand: arginine 13.2 mM) 18.1 nM; (input ligand: none) 17.3 nM; under setting [1], 19 nM; under setting [2], 14.4 nM; under setting [3], 18 nM.
On the same counts, the results for “ACGUAUGUCAGAAGGAGCGUCAAUAACAUGAGGAUCACCCAUGUAUUACAUAGGUAUAAUAGACAGGUAGGUCGCUGAAUUCGAA [JR_SSArginiB_Sub022]” are 22.4 nM, 29.2 nM, 46.4 nM, 31.2 nM and 27 nM.
In the case of “UGUAUGGACUGAAGGAGCGCCUCAAAAUAGCAUGAGGAACACCCAUGCAAGGCGAAAGCCGGGCAGGUAGGUCGCAGUCCAUACU [ArgBX 3]”, the “apparent KD of MS2 coat protein” value is, setting by setting: (input ligand: arginine 13.2 mM) 21 nM; (input ligand: none) 20.3 nM; under setting [1], 32.2 nM; under setting [2], 27.2 nM; under setting [3], 22.6 nM.
With “AAUAAACAUGAGGAUCACCCAUGUUGUUGACGAGGACCGGUACGGCCGCCACUCGACAUGAGGAUCACCCAUGUUGUCACAUGAG [Same State Tryptophan A]”, the “apparent KD of MS2 coat protein” value (input ligand: arginine 13.2 mM) came out at 73.1 nM, the “apparent KD of MS2 coat protein” value under setting [1] was found to be 190 nM and the “apparent KD of MS2 coat protein” value under setting [2] is 256 nM.
On to “GCUCGUUGCAUGGAUACCAGUUGAUAGGCCGCCUCCGGAUACAUGAGGAUCACCCAUGUCAACCCUUGGCAGCCACCCAAUAGGG [theeternabot_exclusion_MS2_Theo_B_27]”, for which the “apparent KD of MS2 coat protein” value worked out at 10.4 nM (input ligand: arginine 13.2 mM), 13.7 nM under setting [1] and 10.6 nM under setting [3].
